From the DeepSol protein solubility set

Assay: soluble on expression in E. coli; label from the status in PepcDB or PDB records

| Sequence | soluble on expression in E. coli |
| --- | --- |
| VQAANLMDRIKANPVSEKNIDEKFIYNTADFSIELFKNSIDDKENSLISPLSAMLALAMTANGADNETLAQMEKALGKDISIEDLNKYLYTYMKKLPNEEKSKLTIANSIWFKENDFMPSKDFLQIIADYYKADIFKAAFDSSTVSDINNWVKSKTNGMIDKILNKIDPEDVMYLINAVAFDAEWETVYEKASVHEDIFTDVYGNRQKVEFMNSEENLYIEEENAIGFVKPYAKNHYSFVAILPDENISVNEYIKTLTGQKFIDLIKNAKITLVRASLPKFKYEYTIKMNETLESLGMTDAFLPDKADFSKLGKSDIGNLYISEVLHKTFISVDELGTKAGAVTSVDITAAGIPVNFKTVKLNRPFIFAIIDNSTNLPIFIGTVLSL | soluble |
| MSLGFFNKLRQLAEDGTKMAQDGYARFNNAAFADATMAACALIGAADGQIDSQERSRTAQFITSSDKLRTFDVSKLREKYERYCDVISRDFDFGKIELMQVIGKVRKPEEARAVVQLAVVIANADGDFDAREQAVMREVIHALGLSPAEFGEGGSHHHHHH | soluble |
| MSKNIVVAPSILSADFSRLGEEIKAVDEAGADWIHVDVMDGRFVPNITIGPLIVDAIRPLTKKTLDVHLMIVEPEKYVEDFAKAGADIISVHVEHNASPHLHRTLCQIRELGKKAGAVLNPSTPLDFLEYVLPVCDLILIMSVNPGFGGQSFIPEVLPKIRALRQMCDERGLDPWIEVDGGLKPNNTWQVLEAGANAIVAGSAVFNAPNYAEAIAGVRNSKRPEPQLATV | soluble |
| MDGNAPEPRYWEKMRLVAEVLKAVEGPIYIATHVDPDGDAIGSSLGLYRALKALGKEAYWVADPPRFLRFLPKEEEYSDPVEKLPPGATLVALDSAEPSRVVGVPVEGFVINIDHHGTNPRFGHLHVVDPSKAATAQMVKDLIDLLGVEWTAEIATPVLTGILTDTGNFRFANTTPEVLRVAAELLGYGVKLAELTDRLQFRPPSYFRLMGQVLSTVAFHFGGLLVTAHLPEEAGAEEDSDDFVGLIRYVEGSVVSVFLRKREEGVKVSIRSRGGVSAQNIALKLGGGGHVPAAGATLKGLDLDQAYERVLEAVREELTRAGYLLEHHHHHH | not soluble |
| MGSDKIHHHHHHMDGREIELKLALAPEDLARIAQRPCLSAGRLAEPTSKRLSSIYYDTSDHILASQGIAVRVRRTGSGFVQTVKTAGTSVSGLFDRDEWEVPLASPDLDAEQLRLTGLAAFADGELADLLTPVFSTEVDRVLIRLGGEGWEAEVALDRGALVVGDRREEISEVELELVSGTPAHLFRLATHIQAETAARPLCLSKSERGYSLAAGKTAPVVKAKAPILTPAMTVEESFRAIARACLEHLMLNERCLLATEAGEAIHQMRVAMRRMRSAIKVFKAVTEGPDLERIKDDLRWLLAHLGPARDADVFLSEIVDPVLAAHPGNAGLIALRAHWRKDRETKLAAAISAVKSKRYATMTLNLGRWVETGDWLTPSHGGARRRLAEPIATFAAGRVGKVVTRLLKEGGETLSRLSPEQRHAVRIRGKQVRYAGEFFASLVPRKSTKVYLSELAELQDVLGKLNDIAVAGPKLSGRGAGAGSSRAAGLIAGWHQSRRATLLNDADKCWKRWRALPLPWDEK | not soluble |
| MRPDLSRVPGVLGEIARKRASEVAPYPLPEPPSVPSFKEALLRPGLSVIAEVKRQSPSEGLIREVDPVEAALAYARGGARAVSVLTEPHRFGGSLLDLKRVREAVDLPLLRKDFVVDPFMLEEARAFGASAALLIVALLGELTGAYLEEARRLGLEALVEVHTERELEIALEAGAEVLGINNRDLATLHINLETAPRLGRLARKRGFGGVLVAESGYSRKEELKALEGLFDAVLIGTSLMRAPDLEAALRELVG | soluble |
| SIPALHRLVTVNMIPDASNDNIMVMRSYQIQATREILQRMKEMEASGLVQKEGGYIWHTTGSGKTVTSFKVAQLLASAPRIKNVLFIVDRIDLIDQTLENFKSFAYAHFKNRIKKVNGRELKRELKRKGSSQILLISVQGLTKAVKKGLENDDWNVIIMDEAHRSASGESVKLIKKALKKTTWFGFTGTPN | not soluble |
| MGSDKIHHHHHHMNPADNILWGNIIKVHGVKGEVLVQVFSDDLTDYETLESVFVEIKQKQIPFFLSTFNFATQKRCILSFEDVTTVEQAKPLVGADIYIPVSKMAEADESRLSYQAIIGFEVMDTIQGKLGVISNFFQKTGQDLLMMDYQDAEILIPVTEEIVHSVDVKTKQVITTLPEGLIEIYLNEDASEPDAD | not soluble |
| MKITGVKAVFYSATGNTEEVVTAIAEKIAEKLGVSMEICNFTLPGGRTEVQTYAPSELVVFGTPVYAGRVPNKMLPVVQNNFKGEGALAVPVVTFGNRNFDNGLIELRNELENNGFHTIAGAGFAVSHVFSDKIAPGRPDEADREIMMRFAEAVAEKVEKMEEIPAPIEVRGEDPVGPYYTPLGTDGKPAVFLKAKPK | not soluble |
| MRDNPLVSILIPTFNRPMLLEKSLRSAVNQTYKNIEIVICDDSTNYDSKTVVESYMKRYKNIRYYFNNGPLGNFGLNNVKKCYELSKGEYINYLNDDDMFHKSKIMRMIRYFQNYKKITLVTSHRSVIDKNDNILPDINATKRIRYLNRPVSGRIIAKLMFNLGNFIGEPTTVLFKKSDVKNFGSLNGKQYYSLIDAATWFELLSKGYCVYIADTLSYFRIHEGQNTNRPEVSGRFLLEWKDLNDYGYRKKIIDSEFYKRFLLSFKKEYEKPKLEHHHHHH | not soluble |
| MAAWFECKVTYEKVADNGMPKKVVESYLVDADSFTLAEAKMIEEITPFVSMGEFNISNIRKVNYAELFLNEDDKCDRYYRCKVLYVTIDEKNGVEKKTPAFMLVKSDSLPNAVAELEKQMGKGLADYEIASVAETALMDVFQYVPAQ | not soluble |
| MSLEDFAESEGGVKKKIPISLVTIRSAKLFDIPFIMRIEQASFREKYPRGLFLTFLESNPDTFLVAEYNGKVIGYVMGYLRPDMEGHIMSIAVDPNYRGNGIGKALMIAVINKLFKKGARWIGLEVRVSNVIAINLYKKLGFKITKRIYSYYSDGEDAFYMILTPEDWKRVNLEEGHHHHHH | soluble |
| MTKKQLHLVIVTGMSGAGKTVAIQSFEDLGYFTIDNMPPALLPKFLQLVEIKEDNPKLALVVDMRSRSFFSEIQAVLDELENQDGLDFKILFLDAADKELVARYKETRRSHPLAADGRILDGIKLERELLAPLKNMSQNVVDTTELTPRELRKTLAEQFSDQEQAQSFRIEVMSFGFKYGIPIDADLVFDVRFLPNPYYLPELRNQTGVDEPVYDYVMNHPESEDFYQHLLALIEPILPSYQKEGKSVLTIAMGCTGGQHRSVAFAKRLAQDLSKNWSVNEGHRDKDRRKETVNRS | not soluble |
| MNYFFCADESRQVNEDPIGSGCRRQCYVLIECPPPWMANEFDSKAVPANLRSLENEFYAVEPDGILLFIYSEELRQNYLTRILIFRPMMGYSGGYIKQEIHVSSLEDVAIVLKDWLAGKDIADTDINPHTRDILVCTHGTHDKCCAKYGIPFYRQAKNIVADLAVESVRIWQSSHFSGHRFAPTILDLPQGRYYGKLDCQSFTNILTYTGDINCLKSIYRGWGILPFPAQVMEGELIFLHGWQWFNYKVSCCFIEQSEDECFNRIEISAILPDGDIKTYQADVVEDESKSIYLIGDCHGIEPELIPKYSVNNLIQII | not soluble |
| MSLKTVEDNRTSLTDQVLKGTLIQDKLYESNKYYPIYGSSELGKDDPFNPAIALNKHNANKKAFLLGAGGSTDLINAIELASQYDKLKGKKLTFIISPQWFTNHGLTNQNFDARMSQTQINQMFQQKNMSTELKRRYAQRLLQFPHVHNKEYLKSYAKNPKETKDSYISGFKENQLIKIEAIKSLFAMDKSPLEHVKPATKPDASWDEMKQKAVEIGKADTTSNKFGIRDQYWKLIQESKRKVRRDYEFNVNSPEFQDLELLVKTMRAAGADVQYVSIPSNGVWYDHIGIDKERRQAVYKKIHSTVVDNGGKIYDMTDKDYEKYVISDAVHIGWKGWVYMDEQIAKHMKGEPQPEVDKPKNEGHHHHHH | soluble |
| MGRFAVYEDPFVTKLMNTIGSMTFDGLGFTLLELYRDLVISADNYFMNYVNYGETPHDVGEESIEDPIYGASYPYWWTDLGPTLVLMLYRDYVFTSNREILEKNYNKIKEIIDWLIRKDMDNDCIPDSKGGYDNSYDGTHMYGASSYIASMFLSALTAFIKMSEILDVKIDDKYYRFLECGKKTFNSLWNGKYFILWKKNDEENTSCLNSQLLGQFWCDILGLPPITDHDKINTALRSIYELNFKASKYCLTNAVREDGSVDSSTAQLRSCWPRVSFAVAAHMILRGMVKEGIEVAKREWETIKELNPFDQSSRIDAIDGKYVGLMSYIGSTSVWLLKLALDKIRLEHHHHHH | soluble |
| MSLGAMKRLALLVPERANIASLENARQGFLAANGFLRERGCAPRFDVRLVAATPQVRLDHGRITVQADTVLEAVGEVDLCVVPPIQGDPQPALQENGALIDWLAGYYKNGGEVASLCVGAALLAAGGVLDGQRAVVHWAAQSDFGRLFPAVRWVSDRVVLEANGIYTSGGAFSAAHLVLHLVDKYTDRETAIWCAKLFQLDWSREGHHHHHH | soluble |
| MITWADALGFRLVVVDSLGSADQEVVEAEDGEPFERHEMRRLTRPLWTRRKARKLSQGDLALLLGVSRASVQRWEDADKFPRPIALIAWAGRLECSVELDRVTSENDRPQPGREEA | not soluble |
| MGVMESGRPPAKPRERVFVGGCLHAGMDHDTAGRTSRQILDAVGSAVIADDHFLETVMTGILARGHVLLEDVPGTGKTLTAQSFATALDLSFKRVQFTPDLLPSDITGSNVFNEATGEFDFQPGPVFANVVLADEINRAPPKTQAALLEAMGEKQVTVDGVTHDLPEPFFVIATQNPVEQEGTFGLPEAQRDRFIVKTSMGYPDFGGERELIDRRADRTAQAPSVTSVIDGERLPALQRTVESVTVDGTLRDYVVELGRATREDDRVDVGVSPRGIQRLFEATRAAAVLDGRDYAVPDDVKTVVEEAFAHRLVLTADAGVRGVDPATVVDDVLDRVEVPAVSPLEHHHHHH | not soluble |
| MGSDKIHHHHHHMSKSEQISHMTDVMAKFVGYTGKVLPDDVTAKLEDLHKKETSKLADVIFTTMIENQRLAKELDRPSCQDTGVIQFLVECGTNFPLIGELEALLREAVIKATVDSPLRHNSVETFDEYNTGKNVGKGTPTVFWEIVPNSDQCSIYTYMAGGGCSLPGKAMVLMPGAGYEGVTRFVLDVMTSYGLNACPPLLVGVGVATSVETAALLSKKALMRPIGSHNENERAASLEKMLEDGINKIGLGPQGMSGNTSVMGVNIENTARHPSTIGVAVNVGCWSHRKGHIVFDAALNYTITSHSGVNF | not soluble |
